# Source: patent US10280205B2, “Method for treating cancer with an activated T lymphocyte that selectively recognizes a cancer cell consisting of specific peptide” (immatics biotechnologies GmbH, priority 2015, dated 2019)
# Target: HLA-A*02:01 (Homo sapiens, UniProt P04439, D140Y/D185E/D98H/E176V/E277Q/G131W/G231S/I119V/I121R/I166T/I218V/L300P/L318F/N151K/N90K/P208A/P217A/Q86G/Q94H/R138H/R169H/T345S)
# Assay: MHC binding assay: UV-ligand exchange with beta2m ELISA (exchange yield)
# Settings: binding to HLA-A*02:01, β2m ELISA
# Description: Candidate peptides for T cell based therapies according to the present invention were further tested for their MHC binding capacity (affinity). The individual peptide-MHC complexes were produced by UV-ligand exchange, where a UV-sensitive peptide is cleaved upon UV-irradiation, and exchanged with the peptide of interest as analyzed. Only peptide candidates that can effectively bind and stabilize the peptide-receptive MHC molecules prevent dissociation of the MHC complexes. To determine the yield of the exchange reaction, an ELISA was performed based on the detection of the light chain (β2m) of stabilized MHC complexes. The assay was performed as generally described in Rodenko et al. (Rodenko et al., 2006).
# 96 well MAXISorp plates (NUNC) were coated over night with 2 ug/ml streptavidin in PBS at room temperature, washed 4× and blocked for 1 h at 37° C. in 2% BSA containing blocking buffer. […] Peptide-MHC monomers of the UV-exchange reaction were diluted 100 fold in blocking buffer. Samples were incubated for 1h at 37° C., washed four times, incubated with 2 ug/ml HRP conjugated anti-β2m for 1h at 37° C., washed again and detected with TMB solution that is stopped with […]. Absorption was measured at 450 nm. Candidate peptides that show a high exchange yield (preferably higher than 50%, most preferred higher than 75%) are generally preferred for a generation and production of antibodies or fragments thereof, and/or T cell receptors or fragments thereof, as they show sufficient avidity to the MHC molecules and prevent dissociation of the MHC complexes.
row,Substance,"Peptide exchange (MHC class I binding score, peptide exchange yield)"
1,122 (FLLAEDDIYL; listed as Homo sapiens) [compound 122],“+++” (≥50 = +++)
2,123 (NLWDLTDASVV; listed as Homo sapiens) [compound 123],“+++” (≥50 = +++)
3,124 (ALYETELADA; listed as Homo sapiens) [compound 124],“++” (≥20% = ++)
4,125 (VQIHQVAQV; listed as Homo sapiens) [compound 125],“+++” (≥50 = +++)
5,126 (VLAYFLPEA; listed as Homo sapiens) [compound 126],“++++” (≥75% = ++++)
6,127 (KIGDEPPKV; listed as Homo sapiens) [compound 127],“++” (≥20% = ++)
7,128 (YLFDDPLSAV; listed as Homo sapiens) [compound 128],“++” (≥20% = ++)
8,129 (GLLDGGVDILL; listed as Homo sapiens) [compound 129],“+++” (≥50 = +++)
9,130 (FLWNGEDSALL; listed as Homo sapiens) [compound 130],“+++” (≥50 = +++)
10,131 (FVPPVTVFPSL; listed as Homo sapiens) [compound 131],“++” (≥20% = ++)
11,132 (LLVEQPPLAGV; listed as Homo sapiens) [compound 132],“+++” (≥50 = +++)
12,133 (KVLSNIHTV; listed as Homo sapiens) [compound 133],“++” (≥20% = ++)
13,134 (YLQELIFSV; listed as Homo sapiens) [compound 134],“+++” (≥50 = +++)
14,135 (ALSEVDFQL; listed as Homo sapiens) [compound 135],“+++” (≥50 = +++)
15,136 (YLADPSNLFVV; listed as Homo sapiens) [compound 136],“+++” (≥50 = +++)
16,137 (TLVLTLPTV; listed as Homo sapiens) [compound 137],“++++” (≥75% = ++++)
17,138 (YQYPRAILSV; listed as Homo sapiens) [compound 138],“+++” (≥50 = +++)
18,139 (SVMEVNSGIYRV; listed as Homo sapiens) [compound 139],“+++” (≥50 = +++)
19,140 (YMDAPKAAL; listed as Homo sapiens) [compound 140],“++” (≥20% = ++)

row,Substance,"Peptide exchange (MHC class I binding score, peptide exchange yield)"
1,142 (FLFATPVFI; listed as Homo sapiens) [compound 142],“+++” (≥50 = +++)
2,144 (YIMEPSIFNTL; listed as Homo sapiens) [compound 144],“+++” (≥50 = +++)
3,145 (FLATSGTLAGI; listed as Homo sapiens) [compound 145],“++” (≥20% = ++)
4,146 (SLATAGDGLIEL; listed as Homo sapiens) [compound 146],“++” (≥20% = ++)
5,147 (SLLEAVSFL; listed as Homo sapiens) [compound 147],“+++” (≥50 = +++)
6,148 (ALNPEIVSV; listed as Homo sapiens) [compound 148],“++” (≥20% = ++)
7,149 (NLLELFVQL; listed as Homo sapiens) [compound 149],“+++” (≥50 = +++)
8,151 (KILQQLVTL; listed as Homo sapiens) [compound 151],“+++” (≥50 = +++)
9,152 (ILFEDIFDV; listed as Homo sapiens) [compound 152],“+++” (≥50 = +++)
10,153 (FLIANVLYL; listed as Homo sapiens) [compound 153],“+” (≥10% = +)
11,154 (ALDDGTPAL; listed as Homo sapiens) [compound 154],“++” (≥20% = ++)
12,155 (RVANLHFPSV; listed as Homo sapiens) [compound 155],“+++” (≥50 = +++)
13,157 (SLNDEVPEV; listed as Homo sapiens) [compound 157],“++” (≥20% = ++)
14,158 (KLFDVDEDGYI; listed as Homo sapiens) [compound 158],“+++” (≥50 = +++)
15,159 (GLVGNPLPSV; listed as Homo sapiens) [compound 159],“++++” (≥75% = ++++)
16,160 (FLFDEEIEQI; listed as Homo sapiens) [compound 160],“+++” (≥50 = +++)
17,161 (ALLEGVNTV; listed as Homo sapiens) [compound 161],“+++” (≥50 = +++)
18,162 (YQQAQVPSV; listed as Homo sapiens) [compound 162],“+++” (≥50 = +++)
19,163 (ALDEMGDLLQL; listed as Homo sapiens) [compound 163],“+++” (≥50 = +++)

row,Substance,"Peptide exchange (MHC class I binding score, peptide exchange yield)"
1,164 (ALLPQPKNLTV; listed as Homo sapiens) [compound 164],“+++” (≥50 = +++)
2,165 (SLLDEIRAV; listed as Homo sapiens) [compound 165],“+++” (≥50 = +++)
3,167 (KVLEVTEEFGV; listed as Homo sapiens) [compound 167],“+++” (≥50 = +++)
4,168 (KILDADIQL; listed as Homo sapiens) [compound 168],“++++” (≥75% = ++++)
5,169 (NLPEYLPFV; listed as Homo sapiens) [compound 169],“+++” (≥50 = +++)
6,170 (RLQETLSAA; listed as Homo sapiens) [compound 170],“+++” (≥50 = +++)
7,171 (LLLPLQILL; listed as Homo sapiens) [compound 171],“+++” (≥50 = +++)
8,172 (VLYSYTIITV; listed as Homo sapiens) [compound 172],“++” (≥20% = ++)
9,173 (LLDSASAGLYL; listed as Homo sapiens) [compound 173],“+++” (≥50 = +++)
10,174 (ALAQYLITA; listed as Homo sapiens) [compound 174],“+++” (≥50 = +++)
11,175 (YLFENISQL; listed as Homo sapiens) [compound 175],“+++” (≥50 = +++)
12,176 (YLMEGSYNKVFL; listed as Homo sapiens) [compound 176],“++” (≥20% = ++)
13,177 (YLLPEEYTSTL; listed as Homo sapiens) [compound 177],“++++” (≥75% = ++++)
14,178 (ALTEIAFVV; listed as Homo sapiens) [compound 178],“++++” (≥75% = ++++)
15,179 (KVLNELYTV; listed as Homo sapiens) [compound 179],“+++” (≥50 = +++)
16,180 (FQIDPHSGLVTV; listed as Homo sapiens) [compound 180],“++” (≥20% = ++)
17,181 (LLWAGTAFQV; listed as Homo sapiens) [compound 181],“+++” (≥50 = +++)
18,182 (MLLEAPGIFL; listed as Homo sapiens) [compound 182],“+++” (≥50 = +++)
